T1: recombinant human IGSF8 extracellular domain tagged by a human Fc region (IGSF8-hFc) (human, UniProt Q969P0 28-579, biotin label in Examples 17, 18 and 28 (site not given))
T1 construct: also called IGSF8-Fc fusion protein; IGSF8-hFc-biotin; not shown: human Fc region
T1 sequence: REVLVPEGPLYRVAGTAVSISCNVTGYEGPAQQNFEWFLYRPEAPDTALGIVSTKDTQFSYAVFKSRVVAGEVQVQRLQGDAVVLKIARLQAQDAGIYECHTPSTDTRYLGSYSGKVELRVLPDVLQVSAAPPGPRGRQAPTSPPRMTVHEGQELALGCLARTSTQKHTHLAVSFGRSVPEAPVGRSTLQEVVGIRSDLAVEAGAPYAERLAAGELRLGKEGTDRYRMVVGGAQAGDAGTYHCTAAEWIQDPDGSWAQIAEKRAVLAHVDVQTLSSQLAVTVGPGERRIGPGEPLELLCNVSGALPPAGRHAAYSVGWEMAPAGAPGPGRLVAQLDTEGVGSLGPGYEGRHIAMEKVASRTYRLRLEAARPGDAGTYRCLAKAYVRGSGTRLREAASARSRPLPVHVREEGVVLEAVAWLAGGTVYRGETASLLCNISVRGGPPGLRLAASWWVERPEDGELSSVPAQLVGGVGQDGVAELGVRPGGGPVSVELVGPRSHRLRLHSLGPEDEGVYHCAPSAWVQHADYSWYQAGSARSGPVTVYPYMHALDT

T2: human IGSF8 expressed on the cell surface (human, UniProt Q969P0 28-613)
T2 construct: whole, on cells; also called human IGSF8 on CT26 cells; IGSF8 on MC38 cells
T2 sequence (looked up): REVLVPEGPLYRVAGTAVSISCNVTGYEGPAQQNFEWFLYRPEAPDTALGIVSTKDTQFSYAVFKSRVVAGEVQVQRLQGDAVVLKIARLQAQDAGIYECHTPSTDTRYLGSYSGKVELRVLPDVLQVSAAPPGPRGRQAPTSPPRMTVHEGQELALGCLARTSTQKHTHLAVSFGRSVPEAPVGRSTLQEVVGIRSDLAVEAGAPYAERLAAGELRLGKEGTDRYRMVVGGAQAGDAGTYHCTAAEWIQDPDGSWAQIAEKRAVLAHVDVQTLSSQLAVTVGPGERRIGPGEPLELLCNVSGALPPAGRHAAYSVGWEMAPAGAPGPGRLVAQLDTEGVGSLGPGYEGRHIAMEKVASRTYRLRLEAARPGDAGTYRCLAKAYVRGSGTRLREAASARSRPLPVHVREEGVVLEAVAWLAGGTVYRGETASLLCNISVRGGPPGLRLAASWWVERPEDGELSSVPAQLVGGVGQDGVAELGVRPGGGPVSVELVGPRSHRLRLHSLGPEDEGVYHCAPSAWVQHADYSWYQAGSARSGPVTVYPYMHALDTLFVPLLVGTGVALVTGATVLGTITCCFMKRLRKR

B1: KIR3DL2 expressed on cells (receptor, human, UniProt P43630 22-455, looked up)
chain: LMGGQDKPFLSARPSTVVPRGGHVALQCHYRRGFNNFMLYKEDRSHVPIFHGRIFQESFIMGPVTPAHAGTYRCRGSRPHSLTGWSAPSNPLVIMVTGNHRKPSLLAHPGPLLKSGETVILQCWSDVMFEHFFLHREGISEDPSRLVGQIHDGVSKANFSIGPLMPVLAGTYRCYGSVPHSPYQLSAPSDPLDIVITGLYEKPSLSAQPGPTVQAGENVTLSCSSWSSYDIYHLSREGEAHERRLRAVPKVNRTFQADFPLGPATHGGTYRCFGSFRALPCVWSNSSDPLLVSVTGNPSSSWPSPTEPSSKSGICRHLHVLIGTSVVIFLFILLLFFLLYRWCSNKKNAAVMDQEPAGDRTVNRQDSDEQDPQEVTYAQLDHCVFIQRKISRPSQRPKTPLTDTSVYTELPNAEPRSKVVSCPRAPQSGLEGVF
notes: whole, on cells; on CT26 cells (vector with thy1.1 tag)

Columns and labels:
[1] = target: B1; experiment: FACS, hFc-tagged proteins on CT26 cells expressing the receptor, MFI normalized to Thy1.1
Procedure: (§1) KLRC1 also contains a ITIM motif in its intracellular domain, and was known to be a inhibitory receptor of NK or CD8⁺ T cells as part of a heterodimer with KLRD1 on the cell surface. […] Specifically, 100,000 CT26 cells overexpressing the antigens (KIRs or KLRs) were washed with PBS buffer containing 2% FBS, and incubated with 100 μL IGSF8 recombinant proteins or antibodies (5 μg/mL) for 30 minutes on ice. Cells were then washed twice with wash buffer, and incubated with 100 μL of 1:100 anti-human Fc-PE antibody for 15 minutes on ice. Cells were washed twice with wash buffer and analyzed on a FACS analyzer (CytoFlex, Beckman). In these experiments, the mean fluorescence intensity (MFI) of IGSF8 binding to different CT26 cells were normalized by the expression of different KLRs on CT26 cells using an anti-thy1.1 mAb via flow cytometry.

[2] = target: T1, recombinant human IGSF8 extracellular …; experiment: FACS, biotin-labelled IGSF8-hFc on CT26 cells expressing the KIR, MFI normalized to Thy1.1
Procedure: For this experiment, different human KIR receptors (KIR2DL1, KIR2DL2, KIR2DL3, KIR2DL4, KIR2DL5A, KIR2DL5B, KIR3DL1, KIR3DL2, KIR3DL3) were first cloned into a proprietary lentiviral vector containing a thy1.1 tag (FIG. 17A). Then mouse CT26 cells, were transducted by these lentiviral constructs, and IGSF8 binding was tested with biotin-labelled recombinant IGSF8 hFc fusion protein. The mean fluorescence intensity (MFI) of IGSF8 binding to different CT26 cells were normalized by the expression of different KIRs on CT26 cells using an anti-thy1.1 mAb (Biolegend) via flow cytometry.
as §1

[3] = target: T2, human IGSF8 expressed on the cell …; experiment: FACS cell-cell conjugate assay, CFSE-labelled MC38-IGSF8 mixed 1:1 with Far Red-labelled CT26-KIR3DL2
Procedure: FIG. 23A is a diagram of two embodiments of an antibody blocking assay. In the left panel, CT26 cells expressing ligand IGSF8 are treated with soluble and biotin labelled receptor (KIR3DL1/2) and anti-IGSF8 mAbs, and subsequently, bound receptor is detected with PE-streptavidin. In the right panel, MC38 cells expressing the IGSF8 ligand are contacted with KLR- or KIR-receptor-expressing CT26 cells, and anti-IGSF8 antibodies capable of blocking MC38-CT26 cell/cell conjugates will reduce the formation of the FACS-detectable conjugate.
A competition assay (FIG. 23A) was then designed to test whether these seven mAbs block IGSF8 binding to the KIR3DL1/2 or the KLRC1&D1 heterodimer receptors. MC38 cells (a cell line derived from C57BL6 murine colon adenocarcinoma cells from NIH) with forced expression of IGSF8 protein on cell surface by lentiviral delivery of a human IGSF8-expression construct were labeled with CFSE (Carboxyfluorescein succinimidyl ester, Thermo). CT26 cells with forced expression of either KIR3DL1/2 or KLRC1&D1 were labeled with CellTrace Far Red (Thermo). The MC38 cells were then mixed at a 1:1 ratio with the CT26 cells for about an hour at room temperature. The formation of MC38 and CT26 cell/cell conjugates was assessed by flow cytometry.

binding result [1]	binding result [2]	binding result [3]	Binder
no binding	–	–	IGSF8 protein without D1 domain (ligand, human, UniProt Q969P0 150-579, looked up, domain: D2-4; also called D24; D2-4) PDVLQVSAAPPGPRGRQAPTSPPRMTVHEGQELALGCLARTSTQKHTHLAVSFGRSVPEAPVGRSTLQEVVGIRSDLAVEAGAPYAERLAAGELRLGKEGTDRYRMVVGGAQAGDAGTYHCTAAEWIQDPDGSWAQIAEKRAVLAHVDVQTLSSQLAVTVGPGERRIGPGEPLELLCNVSGALPPAGRHAAYSVGWEMAPAGAPGPGRLVAQLDTEGVGSLGPGYEGRHIAMEKVASRTYRLRLEAARPGDAGTYRCLAKAYVRGSGTRLREAASARSRPLPVHVREEGVVLEAVAWLAGGTVYRGETASLLCNISVRGGPPGLRLAASWWVERPEDGELSSVPAQLVGGVGQDGVAELGVRPGGGPVSVELVGPRSHRLRLHSLGPEDEGVYHCAPSAWVQHADYSWYQAGSARSGPVTVYPYMHALDT
–	binds	binds	B1
